Test results: EP1745799B1

Biological target: ΔEGFR (extracellular-deleted mutant human EGFR) (human) (UniProt P00533)
Assay: cell-based or functional assay

For “T691stop neu (ectodomain-derived, carboxyl-terminal deletion mutant of the rat p185neu oncogene) (from UniProt P06494 23-687) (receptor)”, the decrease of the phosphorylation content of immunoprecipitated p155ΔEGFR monomers (scanning densitometry, PY-20 blot of mAb Δ124 immunoprecipitates) was 33.7% and the ratio of PTyr/ΔEGFRs (scanning densitometry) was 1.04.
